Reference: patent US20250352659A1, “SELF-STABILIZING LINKER CONJUGATES” (priority 2023, published 2025)
Read-outs that look alike come from different tables or passages of the source.

What was measured:
[1] = Conjugator-antibody conjugate stability in formulation buffer (pH 5.5 20 mM histidine buffer); format: physicochemical; settings: pH 5.5, 22 °C
Method: After the conjugation and hydrolysis steps described above (see “DAR8 antibody drug conjugate/conjugator-antibody conjugate preparation”), conjugator-antibody conjugates were incubated in formulation buffer (pH 5.5 20 mM histidine buffer) or glutathione (GSH) buffer (pH 7.4 or 8.0), […] Hydrolysis status was monitored via reduced LCMS. Results are presented in Table 6, Table 7, and FIGS. 2A-23B.

[2] = Conjugator-antibody conjugate maleimide hydrolysis (ring opening) kinetics by reduced LCMS; format: physicochemical
Method: After the conjugation step, the ADC (or conjugator-antibody conjugate) was subjected to buffer exchange into ring opening buffer (pH 6.5˜9.0, PBS, borate or tris buffer) and the solution was left at 22 or 37° C. for 1˜48 h. The maleimide ring opening process was monitored via reduced LCMS. Once the conjugated maleimide hydrolysis was completed, the resulting ADCs were buffer exchanged into basic tris pH 8.0-8.5 buffer or acidic histidine-acetate pH 5.0-6.5 buffer via dialysis.
LCMS method to monitor and determine maleimide hydrolysis. LC-MS analysis was carried out under the following measurement conditions: • LC-MS system: Vanquish Flex UHPLC and Orbitrap Exploris 240 Mass Spectrometer • Column: MAbPac™ RP, 2.1*50 mm, 4 μm, 1,500 Å, Thermo Scientific™ • Column temperature: 80° C. • Mobile phase A: 0.1% formic acid (FA) aqueous solution • Mobile phase B: Acetonitrile solution containing 0.1% formic acid (FA) • Gradient program 1: 25% B-25% B (0 min-2 min), 25% B-50% B (2 min-18 min), 50% B-90% B (18 min-18.1 min), 90% B-90% B (18.1 min-20 min), 90% B-25% B (20 min-20.1 min), 25% B-25% B (20.1 min-25 min) • Gradient program 2 • Injected sample amount: 2 μg • MS parameters: Intact and denaturing MS data were acquired in HMR mode at setting of R=15k and deconvolved using the ReSpect™ algorithm and Sliding Window integration in Thermo Scientific™ BioPharma Finder™ 4.0 software.
Results for ring opening times measured by the LCMS method described above for monitoring ring hydrolysis are presented in Table 3 as RO T1/2 (h) (i.e., the time, in hours, for 50% of the maleimide rings to open).
Conjugator-antibody conjugate maleimide hydrolysis (ring opening) kinetics are presented in FIGS. 1A-1L, Table 3 (for pH 7.0 reaction conditions, hydrolysis T1/2), and Table 5. The data in Table 5 was generated by the LCMS method described above and includes the time, in hours, for the maleimide ring to open in more than 95% of the conjugators, after antibody conjugation (“RO Completed Time (>95%) (h)”). The results for conjugator-antibody conjugate 3-1 indicate that after 24 hours, about 0% of maleimide rings were open; the results for conjugator-antibody conjugate 3-3 indicate that after 24 hours, about 28% of maleimide rings were open.

[3] = as above; format: physicochemical; settings: pH 7, time point 96 h
[4] = Conjugator-antibody conjugate stability in pH 7.4 and 8.0 buffer with and without GSH; format: physicochemical; settings: incubation 20 h;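 further: conjugate hydrolysis tracked by LC-MS analysis of reduced samples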
B7H3 [5] = target: T1, B7H3 (human, UniProt Q5ZPR3 29-534); experiment: cell-based or functional assay
T1 sequence (looked up): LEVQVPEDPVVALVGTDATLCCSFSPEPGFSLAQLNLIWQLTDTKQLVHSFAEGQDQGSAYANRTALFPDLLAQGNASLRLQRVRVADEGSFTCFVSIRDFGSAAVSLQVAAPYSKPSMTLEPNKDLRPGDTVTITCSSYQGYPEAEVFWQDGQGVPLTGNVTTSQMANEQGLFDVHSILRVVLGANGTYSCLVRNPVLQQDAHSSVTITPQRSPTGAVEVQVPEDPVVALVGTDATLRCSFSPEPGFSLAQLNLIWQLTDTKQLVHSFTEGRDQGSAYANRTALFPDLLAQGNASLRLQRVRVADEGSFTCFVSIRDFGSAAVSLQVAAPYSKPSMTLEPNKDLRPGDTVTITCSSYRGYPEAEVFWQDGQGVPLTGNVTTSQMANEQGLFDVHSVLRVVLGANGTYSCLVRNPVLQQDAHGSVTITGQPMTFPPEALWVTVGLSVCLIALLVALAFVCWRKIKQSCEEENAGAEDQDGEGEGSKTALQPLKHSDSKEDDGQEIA

B7H3 [6] = target: T1, B7H3; experiment: cell-based or functional assay; remark: listed apart in the source

## CN(C)C(=O)CCNC(=O)OCC(CCN)N1C(=O)C=CC1=O (centres unmarked) [3-11]
[1]; incubation 168 h
  MS DAR-T = 168 h: 8.00
  Maleimide ring opening ratio (%) at T = 168 h: 96.99%
[1]
  MS DAR-T = 0 h: 8.02
[2]; buffer, pH 7.0, time for 50% of the maleimide rings to open, read-out: RO T1/2 (converted)
  half-life: 14 h
[2]; pH 7, time point 1 h
  MS DAR: 8
  RO (%) HC: 3.41%
  RO (%) LC: 1.97%
  RO (%) Total: 3.05%
[2]; pH 7, time point 3 h
  MS DAR: 8
  RO (%) HC: 12.32%
  RO (%) LC: 6.37%
  RO (%) Total: 10.83%
[2]; pH 7, time point 5 h
  MS DAR: 8
  RO (%) HC: 31.72%
  RO (%) LC: 10.15%
  RO (%) Total: 26.33%
[2]; pH 7, time point 7 h
  MS DAR: 8
  RO (%) HC: 33.03%
  RO (%) LC: 14.6%
  RO (%) Total: 28.42%
[2]; pH 7, time point 24 h
  MS DAR: 8
  RO (%) HC: 84.46%
  RO (%) LC: 68.64%
  RO (%) Total: 80.51%
[2]; pH 7, time point 96 h
  MS DAR: 8
  RO (%) HC: 96.94%
  RO (%) LC: 89.26%
[2]; pH 7, time for the maleimide ring to open in more than 95% of the conjugators
  RO Completed Time (>95%): 96 h
[3]
  RO (%) Total: 95.02%
[4]; pH 7.4, 22 °C
  MS DAR: 8.00
[4]; pH 7.4, 37 °C
  MS DAR: 8.00
[4]; pH 8.0, 22 °C
  MS DAR: 8.00

B1: ADC4-B (antibody, human IgG1, kappa, V domains shown)
VH: QVQLVQSGAEVKKPGSSVKVSCKASGYTFTNYVMHWVRQAPGQGLEWMGYINPYNDDVKYNEKFKGRVTITADESTSTAYMELSSLRSEDTAVYYCARWGYYGSPLYYFDYWGQGTLVTVSS
VL: EIVLTQSPATLSLSPGERATLSCRASSRLIYMHWYQQKPGQAPRPLIYATSNLASGIPARFSGSGSGTDFTLTISSLEPEDFAVYYCQQWNSNPPTFGQGTKVEIKR
modifications: conjugator-linker-payload on cysteine thiols after TCEP reduction (DAR8); residues not numbered; structure given only as a drawing
B7H3 [5]
  EC50 (nM), ADC direct killing, Capan-1 (Low), 3D: 0.5 nM
  EC50 (nM), ADC direct killing, NCI-H1650 (High), 3D: 3.9 nM
  Emax (%), ADC direct killing, Capan-1 (Low), 3D: 84.9%
  Emax (%), ADC direct killing, NCI-H1650 (High), 3D: 75.3%
B7H3 [6]
  EC50 (nM), ADC direct killing, Capan-1 (Low), 3D: 1.1 nM
  EC50 (nM), ADC direct killing, NCI-H1650 (High), 3D: 4.5 nM
  Emax (%), ADC direct killing, Capan-1 (Low), 3D: 74.3%
  Emax (%), ADC direct killing, NCI-H1650 (High), 3D: 66.5%

B2: ADC4-12 (antibody, human IgG1, kappa, V domains shown)
VH: B1 VH
VL: B1 VL
modifications: conjugator-linker-payload on cysteine thiols after TCEP reduction (DAR8), maleimide hydrolysed; residues not numbered; structure given only as a drawing
B7H3 [6]
  EC50 (nM), ADC direct killing, NCI-H1650 (High), 3D: 2.3 nM
  Emax (%), ADC direct killing, Capan-1 (Low), 3D: 61.9%
  Emax (%), ADC direct killing, NCI-H1650 (High), 3D: 83.2%

B3: ADC4-9 (antibody, human IgG1, kappa, V domains shown)
VH: B1 VH
VL: B1 VL
modifications: conjugator-linker-payload on cysteine thiols after TCEP reduction (DAR8), maleimide hydrolysed; residues not numbered; structure given only as a drawing
B7H3 [5]
  EC50 (nM), ADC direct killing, Capan-1 (Low), 3D: 0.8 nM
  EC50 (nM), ADC direct killing, NCI-H1650 (High), 3D: 2.8 nM
  Emax (%), ADC direct killing, Capan-1 (Low), 3D: 78.8%
  Emax (%), ADC direct killing, NCI-H1650 (High), 3D: 81.4%

B4: ADC4-16 (antibody, human IgG1, kappa, V domains shown)
VH: B1 VH
VL: B1 VL
modifications: conjugator-linker-payload on cysteine thiols after TCEP reduction (DAR8), maleimide hydrolysed; residues not numbered; structure given only as a drawing
B7H3 [6]
  EC50 (nM), ADC direct killing, Capan-1 (Low), 3D: 0.6 nM
  EC50 (nM), ADC direct killing, NCI-H1650 (High), 3D: 1.5 nM
  Emax (%), ADC direct killing, Capan-1 (Low), 3D: 62.2%
  Emax (%), ADC direct killing, NCI-H1650 (High), 3D: 76.4%

B5: ADC4-8 (antibody, human IgG1, kappa, V domains shown)
VH: B1 VH
VL: B1 VL
modifications: conjugator-linker-payload on cysteine thiols after TCEP reduction (DAR8), maleimide hydrolysed; residues not numbered; structure given only as a drawing
B7H3 [5]
  EC50 (nM), ADC direct killing, Capan-1 (Low), 3D: 1 nM
  EC50 (nM), ADC direct killing, NCI-H1650 (High), 3D: 2.9 nM
  Emax (%), ADC direct killing, Capan-1 (Low), 3D: 66.6%
  Emax (%), ADC direct killing, NCI-H1650 (High), 3D: 79.5%

B6: ADC4-14 (antibody, human IgG1, kappa, V domains shown)
VH: B1 VH
VL: B1 VL
modifications: conjugator-linker-payload on cysteine thiols after TCEP reduction (DAR8), maleimide hydrolysed; residues not numbered; structure given only as a drawing
B7H3 [6]
  EC50 (nM), ADC direct killing, Capan-1 (Low), 3D: 0.4 nM
  EC50 (nM), ADC direct killing, NCI-H1650 (High), 3D: 1.3 nM
  Emax (%), ADC direct killing, Capan-1 (Low), 3D: 61.3%
  Emax (%), ADC direct killing, NCI-H1650 (High), 3D: 81.6%

B7: ADC4-13 (antibody, human IgG1, kappa, V domains shown)
VH: B1 VH
VL: B1 VL
modifications: conjugator-linker-payload on cysteine thiols after TCEP reduction (DAR8), maleimide hydrolysed; residues not numbered; structure given only as a drawing
B7H3 [6]
  EC50 (nM), ADC direct killing, Capan-1 (Low), 3D: 0.5 nM
  EC50 (nM), ADC direct killing, NCI-H1650 (High), 3D: 1.6 nM
  Emax (%), ADC direct killing, Capan-1 (Low), 3D: 58.5%
  Emax (%), ADC direct killing, NCI-H1650 (High), 3D: 79.3%

B8: ADC4-11 (antibody, human IgG1, kappa, V domains shown)
VH: B1 VH
VL: B1 VL
modifications: conjugator-linker-payload on cysteine thiols after TCEP reduction (DAR8), maleimide hydrolysed; residues not numbered; structure given only as a drawing
B7H3 [6]
  EC50 (nM), ADC direct killing, Capan-1 (Low), 3D: 1 nM
  EC50 (nM), ADC direct killing, NCI-H1650 (High), 3D: 2.1 nM
  Emax (%), ADC direct killing, Capan-1 (Low), 3D: 62.4%
  Emax (%), ADC direct killing, NCI-H1650 (High), 3D: 85.6%

B9: ADC4-10 (antibody, human IgG1, kappa, V domains shown)
VH: B1 VH
VL: B1 VL
modifications: conjugator-linker-payload on cysteine thiols after TCEP reduction (DAR8), maleimide hydrolysed; residues not numbered; structure given only as a drawing
B7H3 [5]
  EC50 (nM), ADC direct killing, Capan-1 (Low), 3D: 0.6 nM
  EC50 (nM), ADC direct killing, NCI-H1650 (High), 3D: 1.7 nM
  Emax (%), ADC direct killing, Capan-1 (Low), 3D: 68.4%
  Emax (%), ADC direct killing, NCI-H1650 (High), 3D: 80%
